Experimental data published in patent CN101248088A (LILLY CO ELI, dated 2008).

Tests used:
[1] = target: 人IL-23 (human IL-23, p19/p40 heterodimer) (human) (UniProt P29460); assay: cell-based or functional assay
[2] = target: 人IL-23 (human IL-23, p19/p40 heterodimer) (human) (UniProt P29460); assay: SPR (BIAcore), antibody captured on protein A CM5 chip, human IL-23 in flow, HBS-EP pH 7.4, 25 °C
[3] = target: T1, 人IL-23 (human IL-23, p19/p40 heterodimer) (human, UniProt P29460 23-328); assay: SPR (BIAcore)
T1 construct: Bought human IL-23 (R&D Systems); also called hIL-23; 成熟IL-23
T1 sequence 1: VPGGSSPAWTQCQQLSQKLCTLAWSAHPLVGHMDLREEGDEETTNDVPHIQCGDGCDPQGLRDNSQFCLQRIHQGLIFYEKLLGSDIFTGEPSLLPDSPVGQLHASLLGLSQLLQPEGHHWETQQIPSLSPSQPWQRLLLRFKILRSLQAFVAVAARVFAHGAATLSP
T1 sequence 2: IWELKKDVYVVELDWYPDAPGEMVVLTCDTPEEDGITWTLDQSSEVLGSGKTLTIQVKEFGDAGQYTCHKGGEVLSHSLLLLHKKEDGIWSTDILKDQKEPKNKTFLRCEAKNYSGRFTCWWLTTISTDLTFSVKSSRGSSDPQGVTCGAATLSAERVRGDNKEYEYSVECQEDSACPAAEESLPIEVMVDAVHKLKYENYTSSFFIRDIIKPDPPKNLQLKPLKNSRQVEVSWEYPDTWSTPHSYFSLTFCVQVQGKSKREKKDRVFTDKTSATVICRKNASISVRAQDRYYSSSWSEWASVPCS

[4] = target: T1, 人IL-23 (human IL-23, p19/p40 …); assay: cell-based or functional assay

Molecule: MAB1290 (小鼠抗人IL-23单克隆抗体, 安迪生物科技 R&D Systems) (antibody)
- IC50, 小鼠脾细胞测定法 (IL-23-stimulated IL-17 secretion of mouse splenocytes) [1]: 2.8 nM
- Kd [2]: 21.4 nM
- koff [2]: 0.000768 s⁻¹
- kon [2]: 36800 M⁻¹ s⁻¹

B1: MAbQF20 (antibody, V domains shown)
VH: QVQLVQSGAEVKKPGASVKVSCKVSGKTFWSYGINWVRQAPGKGLEWMGYIYIGTGYTEPNPKYKGRVTMTEDTSTDTAYMELSSLRSEDTAVYYCATIGGYYGNFADWGQGTTVTVSS
VL: DVVMTQSPLSLPVTLGQPASISCRSSQSLLISGGKTYLNWFQQRPGQSPRRLIYLVSKLDQGVPDRFSGSGSGTDFTLKISRVEAEDVGVYYCWQGTYFPLTFGQGTKLEIK
notes: Humanised antibody
- Kd [3]: < 0.16 nM
- IC50, 小鼠脾细胞测定法 [4]: < 0.02 nM
- IC50, 小鼠脾细胞测定法 (IL-23-stimulated IL-17 secretion of mouse splenocytes) [4]: 0.002 nM

B2: MAbQF37 (antibody, V domains shown)
VH: QVQLVQSGAEVKKPGASVKVSCKVSGKTFWSYGINWVRQAPGKGLEWMGYIYIGTGYTEPNPKYKGRVTMTEDTSTDTAYMELSSLRSEDTAVYYCATIGGYYGNFDQWGQGTTVTVSS
VL: DVVMTQSPLSLPVTLGQPASISCRSSQSLLISGGKTYLNWFQQRPGQSPRRLIYLVSKLDQGVPDRFSGSGSGTDFTLKISRVEAEDVGVYYCWQGTYFPLTFGQGTKLEIK
notes: Humanised antibody
- Kd [3]: < 0.16 nM
- IC50, 小鼠脾细胞测定法 [4]: < 0.02 nM
- IC50, 小鼠脾细胞测定法 (IL-23-stimulated IL-17 secretion of mouse splenocytes) [4]: 0.002 nM
